The experiment deals with T1, human GPC3 (human, UniProt P51654 25-563).
T1 construct: range 25-563; soluble analyte; also called soluble human GPC3; glypican 3
The experiment in a line: SPR. (In general: SPR reads the build-up and loss of mass on a sensor chip optically.)

The values below come from US20250066503A1, “CELL INJURY INDUCING THERAPEUTIC DRUG FOR USE IN CANCER THERAPY” (CHUGAI SEIYAKU KABUSHIKI KAISHA, priority 2016, published 2025).

T1 sequence (P51654 25-563 limits assumed): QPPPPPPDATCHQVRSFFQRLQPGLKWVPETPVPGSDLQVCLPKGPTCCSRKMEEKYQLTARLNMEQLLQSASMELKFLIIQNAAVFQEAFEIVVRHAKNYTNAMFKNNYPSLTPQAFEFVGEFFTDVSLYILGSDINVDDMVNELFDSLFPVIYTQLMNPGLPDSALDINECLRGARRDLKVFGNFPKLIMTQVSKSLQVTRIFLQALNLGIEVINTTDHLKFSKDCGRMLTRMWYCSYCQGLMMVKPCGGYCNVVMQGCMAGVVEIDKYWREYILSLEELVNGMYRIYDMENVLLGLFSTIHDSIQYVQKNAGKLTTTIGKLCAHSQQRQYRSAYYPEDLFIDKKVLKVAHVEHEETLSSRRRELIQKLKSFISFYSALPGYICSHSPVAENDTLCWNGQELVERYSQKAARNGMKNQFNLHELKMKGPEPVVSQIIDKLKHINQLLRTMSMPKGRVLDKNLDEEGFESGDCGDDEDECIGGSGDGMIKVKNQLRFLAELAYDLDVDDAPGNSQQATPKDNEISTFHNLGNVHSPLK

B1: H0610-G1dh/none-Hi-Kn010G3/L0155-k0 (antibody, V domains shown)
VH: QVQLVQSGAEVKKPGASVKVSCKASGYTFTDYEMHWIRQPPGQGLEWIGAIDGKTPDTAYSQKFKGRVTLTADKSTSTAYMELSSLTSEDTAVYYCTRFYSYTYWGQGTLVTVSS
VL: DIVMTQSPLSLPVTPGEPASISCRSSQSLVHSNRNTYLHWYQQKPGQAPRLLIYKVSNRFSGVPDRFSGSGSGTDFTLKISRVEAEDVGVYYCLQGTQVPYTFGQGTKLEIK
notes: one-arm
The Kd is the concentration at which binding is half-saturated. Lower therefore signals a tighter complex. Consider B1, for which the Kd turned out to be 1.28 nM.

B2: H0610-G1dh/none-Hi-Kn010G3/L0168-k0 (antibody, V domains shown)
VH: QVQLVQSGAEVKKPGASVKVSCKASGYTFTDYEMHWIRQPPGQGLEWIGAIDGKTPDTAYSQKFKGRVTLTADKSTSTAYMELSSLTSEDTAVYYCTRFYSYTYWGQGTLVTVSS
VL: DIVMTQSPLSLPVTPGEPASISCRSSQSLVHSNRNTYLHWYQQKPGQAPRLLIYKVSNRFSGVPDRFSGSGSGTDFTLKISRVEAEDVGVYYCGQTTQVPYTFGQGTKLEIK
notes: one-arm
The molecule B2 had a Kd of 0.699 nM.

B3: H0610-G1dh/none-Hi-Kn010G3/L0181-k0 (antibody, V domains shown)
VH: QVQLVQSGAEVKKPGASVKVSCKASGYTFTDYEMHWIRQPPGQGLEWIGAIDGKTPDTAYSQKFKGRVTLTADKSTSTAYMELSSLTSEDTAVYYCTRFYSYTYWGQGTLVTVSS
VL: DIVMTQSPLSLPVTPGEPASISCRSSQSLVHSNRNTYLHWYQQKPGQAPRLLIYKVSNRFSGVPDRFSGSGSGTDFTLKISRVEAEDVGVYYCGQGTQPPYTFGQGTKLEIK
notes: one-arm
With B3, binding was put at a Kd of 3.51 nM.

B4: H0610-G1dh/none-Hi-Kn010G3/L0187-k0 (antibody, V domains shown)
VH: QVQLVQSGAEVKKPGASVKVSCKASGYTFTDYEMHWIRQPPGQGLEWIGAIDGKTPDTAYSQKFKGRVTLTADKSTSTAYMELSSLTSEDTAVYYCTRFYSYTYWGQGTLVTVSS
VL: DIVMTQSPLSLPVTPGEPASISCRSSQSLVHSNRNTYLHWYQQKPGQAPRLLIYKVSNRFSGVPDRFSGSGSGTDFTLKISRVEAEDVGVYYCGQGTQYPYTFGQGTKLEIK
notes: one-arm
With B4, binding was put at a Kd of 4.92 nM. The Kd values of the last two molecules are within 1.5-fold of each other.

B5: H0610-G1dh/none-Hi-Kn010G3/L0202-k0 (antibody, V domains shown)
VH: QVQLVQSGAEVKKPGASVKVSCKASGYTFTDYEMHWIRQPPGQGLEWIGAIDGKTPDTAYSQKFKGRVTLTADKSTSTAYMELSSLTSEDTAVYYCTRFYSYTYWGQGTLVTVSS
VL: DIVMTQSPLSLPVTPGEPASISCRSSQSPVHSNRWTYLHWYQQKPGQAPRLLIYKVSNRFSGVPDRFSGSGSGTDFTLKISRVEAEDVGVYYCGQGTQVPYTFGQGTKLEIK
notes: one-arm
In the case of B5, the Kd stood at 1.22 nM.

B6: H0610-G1dh/none-Hi-Kn010G3/L0157-k0 (antibody, V domains shown)
VH: QVQLVQSGAEVKKPGASVKVSCKASGYTFTDYEMHWIRQPPGQGLEWIGAIDGKTPDTAYSQKFKGRVTLTADKSTSTAYMELSSLTSEDTAVYYCTRFYSYTYWGQGTLVTVSS
VL: DIVMTQSPLSLPVTPGEPASISCRSSQSLVHSNRNTYLHWYQQKPGQAPRLLIYKVSNRFSGVPDRFSGSGSGTDFTLKISRVEAEDVGVYYCNQGTQVPYTFGQGTKLEIK
notes: one-arm
Take B6: binding was put at a Kd of 2.6 nM.

B7: H0610-G1dh/none-Hi-Kn010G3/L0173-k0 (antibody, V domains shown)
VH: QVQLVQSGAEVKKPGASVKVSCKASGYTFTDYEMHWIRQPPGQGLEWIGAIDGKTPDTAYSQKFKGRVTLTADKSTSTAYMELSSLTSEDTAVYYCTRFYSYTYWGQGTLVTVSS
VL: DIVMTQSPLSLPVTPGEPASISCRSSQSLVHSNRNTYLHWYQQKPGQAPRLLIYKVSNRFSGVPDRFSGSGSGTDFTLKISRVEAEDVGVYYCGQGTQFPYTFGQGTKLEIK
notes: one-arm
For B7, the Kd is 2.83 nM.

B8: H0610-G1dh/none-Hi-Kn010G3/L0214-k0 (antibody, V domains shown)
VH: QVQLVQSGAEVKKPGASVKVSCKASGYTFTDYEMHWIRQPPGQGLEWIGAIDGKTPDTAYSQKFKGRVTLTADKSTSTAYMELSSLTSEDTAVYYCTRFYSYTYWGQGTLVTVSS
VL: DIVMTQSPLSLPVTPGEPASISCRSSQPPVHSNRNTYLHWYQQKPGQAPRLLIYKVSNRFRGVPDRFSGSGSGTDFTLKISRVEAEDVGVYYCGQGTQVPYTFGQGTKLEIK
notes: one-arm
In the case of B8, the Kd came out at 0.657 nM.

B9: H0610-G1dh/none-Hi-Kn010G3/L0213-k0 (antibody, V domains shown)
VH: QVQLVQSGAEVKKPGASVKVSCKASGYTFTDYEMHWIRQPPGQGLEWIGAIDGKTPDTAYSQKFKGRVTLTADKSTSTAYMELSSLTSEDTAVYYCTRFYSYTYWGQGTLVTVSS
VL: DIVMTQSPLSLPVTPGEPASISCRSSQSPVHSNRNTYIHWYQQKPGQAPRLLIYKVSNRFRGVPDRFSGSGSGTDFTLKISRVEAEDVGVYYCGQGTQVPYTFGQGTKLEIK
notes: one-arm
Turning to B9, the Kd amounted to 1.25 nM. Compared with the last molecule, the Kd is about 1.9-fold higher.

B10: H0610-G1dh/none-Hi-Kn010G3/L0163-k0 (antibody, V domains shown)
VH: QVQLVQSGAEVKKPGASVKVSCKASGYTFTDYEMHWIRQPPGQGLEWIGAIDGKTPDTAYSQKFKGRVTLTADKSTSTAYMELSSLTSEDTAVYYCTRFYSYTYWGQGTLVTVSS
VL: DIVMTQSPLSLPVTPGEPASISCRSSQSLVHSNRNTYLHWYQQKPGQAPRLLIYKVSNRFSGVPDRFSGSGSGTDFTLKISRVEAEDVGVYYCYQGTQVPYTFGQGTKLEIK
notes: one-arm
B10 gave a Kd of 3.38 nM.

B11: H0610-G1dh/none-Hi-Kn010G3/L0160-k0 (antibody, V domains shown)
VH: QVQLVQSGAEVKKPGASVKVSCKASGYTFTDYEMHWIRQPPGQGLEWIGAIDGKTPDTAYSQKFKGRVTLTADKSTSTAYMELSSLTSEDTAVYYCTRFYSYTYWGQGTLVTVSS
VL: DIVMTQSPLSLPVTPGEPASISCRSSQSLVHSNRNTYLHWYQQKPGQAPRLLIYKVSNRFSGVPDRFSGSGSGTDFTLKISRVEAEDVGVYYCTQGTQVPYTFGQGTKLEIK
notes: one-arm
On to B11, for which the Kd turned out to be 2.12 nM.

B12: H0610-G1dh/none-Hi-Kn010G3/L0186-k0 (antibody, V domains shown)
VH: QVQLVQSGAEVKKPGASVKVSCKASGYTFTDYEMHWIRQPPGQGLEWIGAIDGKTPDTAYSQKFKGRVTLTADKSTSTAYMELSSLTSEDTAVYYCTRFYSYTYWGQGTLVTVSS
VL: DIVMTQSPLSLPVTPGEPASISCRSSQSLVHSNRNTYLHWYQQKPGQAPRLLIYKVSNRFSGVPDRFSGSGSGTDFTLKISRVEAEDVGVYYCGQGTQWPYTFGQGTKLEIK
notes: one-arm
The molecule B12 displayed a Kd of 1.08 nM.

B13: H0610-G1dh/none-Hi-Kn010G3/L0200-k0 (antibody, V domains shown)
VH: QVQLVQSGAEVKKPGASVKVSCKASGYTFTDYEMHWIRQPPGQGLEWIGAIDGKTPDTAYSQKFKGRVTLTADKSTSTAYMELSSLTSEDTAVYYCTRFYSYTYWGQGTLVTVSS
VL: DIVMTQSPLSLPVTPGEPASISCRPSQSPVHSNRNTYLHWYQQKPGQAPRLLIYKVSNRFSGVPDRFSGSGSGTDFTLKISRVEAEDVGVYYCGQGTQVPYTFGQGTKLEIK
notes: one-arm
Molecule B13 yielded a Kd of 1.04 nM.

B14: H0610-G1dh/none-Hi-Kn010G3/L0215-k0 (antibody, V domains shown)
VH: QVQLVQSGAEVKKPGASVKVSCKASGYTFTDYEMHWIRQPPGQGLEWIGAIDGKTPDTAYSQKFKGRVTLTADKSTSTAYMELSSLTSEDTAVYYCTRFYSYTYWGQGTLVTVSS
VL: DIVMTQSPLSLPVTPGEPASISCRSSQPPVHSNRNTYIHWYQQKPGQAPRLLIYKVSNRFSGVPDRFSGSGSGTDFTLKISRVEAEDVGVYYCGQGTQVPYTFGQGTKLEIK
notes: one-arm
B14 came in with a Kd of 1.64 nM.

B15: H0610-G1dh/none-Hi-Kn010G3/L0161-k0 (antibody, V domains shown)
VH: QVQLVQSGAEVKKPGASVKVSCKASGYTFTDYEMHWIRQPPGQGLEWIGAIDGKTPDTAYSQKFKGRVTLTADKSTSTAYMELSSLTSEDTAVYYCTRFYSYTYWGQGTLVTVSS
VL: DIVMTQSPLSLPVTPGEPASISCRSSQSLVHSNRNTYLHWYQQKPGQAPRLLIYKVSNRFSGVPDRFSGSGSGTDFTLKISRVEAEDVGVYYCVQGTQVPYTFGQGTKLEIK
notes: one-arm
Take B15: binding was characterised by a dissociation constant (Kd) of 0.973 nM. This Kd lies about 1.7-fold lower than the previous one.

B16: H0610-G1dh/none-Hi-Kn010G3/L0167-k0 (antibody, V domains shown)
VH: QVQLVQSGAEVKKPGASVKVSCKASGYTFTDYEMHWIRQPPGQGLEWIGAIDGKTPDTAYSQKFKGRVTLTADKSTSTAYMELSSLTSEDTAVYYCTRFYSYTYWGQGTLVTVSS
VL: DIVMTQSPLSLPVTPGEPASISCRSSQSLVHSNRNTYLHWYQQKPGQAPRLLIYKVSNRFSGVPDRFSGSGSGTDFTLKISRVEAEDVGVYYCGQSTQVPYTFGQGTKLEIK
notes: one-arm
As for B16, the Kd is 0.211 nM. Compared with the last molecule, the Kd is about 4.6-fold lower.

B17: H0610-G1dh/none-Hi-Kn010G3/L0205-k0 (antibody, V domains shown)
VH: QVQLVQSGAEVKKPGASVKVSCKASGYTFTDYEMHWIRQPPGQGLEWIGAIDGKTPDTAYSQKFKGRVTLTADKSTSTAYMELSSLTSEDTAVYYCTRFYSYTYWGQGTLVTVSS
VL: DIVMTQSPLSLPVTPGEPASISCRSSQSPVHSNRNTYLHWYQQKPGQAPRLLIYKVSNRFWGVPDRFSGSGSGTDFTLKISRVEAEDVGVYYCGQGTQVPYTFGQGTKLEIK
notes: one-arm
For the molecule B17, the Kd stood at 1.01 nM.

B18: H0610-G1dh/none-Hi-Kn010G3/L0217-k0 (antibody, V domains shown)
VH: QVQLVQSGAEVKKPGASVKVSCKASGYTFTDYEMHWIRQPPGQGLEWIGAIDGKTPDTAYSQKFKGRVTLTADKSTSTAYMELSSLTSEDTAVYYCTRFYSYTYWGQGTLVTVSS
VL: DIVMTQSPLSLPVTPGEPASISCRPSQSLVHSNRNTYLHWYQQKPGQAPRLLIYKVSNRFRGVPDRFSGSGSGTDFTLKISRVEAEDVGVYYCGQGTQVPYTFGQGTKLEIK
notes: one-arm
In the case of B18, binding was put at a Kd of 1.79 nM.

B19: H0610-G1dh/none-Hi-Kn010G3/L0175-k0 (antibody, V domains shown)
VH: QVQLVQSGAEVKKPGASVKVSCKASGYTFTDYEMHWIRQPPGQGLEWIGAIDGKTPDTAYSQKFKGRVTLTADKSTSTAYMELSSLTSEDTAVYYCTRFYSYTYWGQGTLVTVSS
VL: DIVMTQSPLSLPVTPGEPASISCRSSQSLVHSNRNTYLHWYQQKPGQAPRLLIYKVSNRFSGVPDRFSGSGSGTDFTLKISRVEAEDVGVYYCGQGTQHPYTFGQGTKLEIK
notes: one-arm
In the case of B19, binding was characterised by a dissociation constant (Kd) of 3.84 nM.

B20: H0610-G1dh/none-Hi-Kn010G3/L0180-k0 (antibody, V domains shown)
VH: QVQLVQSGAEVKKPGASVKVSCKASGYTFTDYEMHWIRQPPGQGLEWIGAIDGKTPDTAYSQKFKGRVTLTADKSTSTAYMELSSLTSEDTAVYYCTRFYSYTYWGQGTLVTVSS
VL: DIVMTQSPLSLPVTPGEPASISCRSSQSLVHSNRNTYLHWYQQKPGQAPRLLIYKVSNRFSGVPDRFSGSGSGTDFTLKISRVEAEDVGVYYCGQGTQNPYTFGQGTKLEIK
notes: one-arm
Consider B20, for which the Kd is 4.48 nM.

B21: H0610-G1dh/none-Hi-Kn010G3/L0216-k0 (antibody, V domains shown)
VH: QVQLVQSGAEVKKPGASVKVSCKASGYTFTDYEMHWIRQPPGQGLEWIGAIDGKTPDTAYSQKFKGRVTLTADKSTSTAYMELSSLTSEDTAVYYCTRFYSYTYWGQGTLVTVSS
VL: DIVMTQSPLSLPVTPGEPASISCRSSQPLVHSNRNTYLHWYQQKPGQAPRLLIYKVSNRFRGVPDRFSGSGSGTDFTLKISRVEAEDVGVYYCGQGTQVPYTFGQGTKLEIK
notes: one-arm
In turn, B21 showed a Kd of 1.86 nM.
